According to patent US20240270839A1 (ELPISCIENCE SUZHOU BIOPHARMA, published 2024):
Where a chain is given by its changes, count along the chain named. Values joined by “and” are separate entries in the source; they are usually repeats but may differ in a detail not shown here. Identical values can stand only once. Like-named read-outs stand apart in the source and are kept apart here. Blank lines part the entries; values can stand above or below the binder they belong to.

Legend:
[1] = biological target: human CLDN18.2 (hCLDN18.2), expressed on cells (human); assay: cell-based or functional assay
[2] = biological target: T1, human CLDN18.2 (hCLDN18.2), expressed on cells (human); assay: FACS, SNU620 cells over-expressing hCLDN18.2
T1 construct: the constructs in the cell lines are not described; also called Claudin18.2; HEK293-hCLDN18.2

[3] = biological target: T1, human CLDN18.2 (hCLDN18.2), expressed …; assay: cell-based or functional assay; remark: listed apart in the source
[4] = biological target: T1, human CLDN18.2 (hCLDN18.2), expressed …; assay: cell-based or functional assay; remark: listed apart in the source
[5] = biological target: T1, human CLDN18.2 (hCLDN18.2), expressed …; assay: FACS, MFC cells over-expressing hCLDN18.2
[6] = biological target: T1, human CLDN18.2 (hCLDN18.2), expressed …; assay: FACS, SNU620 cells (endogenous CLDN18.2); FACS, SNU620 cells (native CLDN18.2)
[7] = biological target: T1, human CLDN18.2 (hCLDN18.2), expressed …; assay: FACS, HEK293/hCLDN18.2 cells; FACS, HEK293/hCLDN18.2 cells (stable over-expression)
[8] = biological target: T1, human CLDN18.2 (hCLDN18.2), expressed …; assay: FACS, HEK293/hCLDN18.2 cells
[9] = biological target: T1, human CLDN18.2 (hCLDN18.2), expressed …; assay: FACS, SNU620 cells (endogenous CLDN18.2)
[10] = biological target: T1, human CLDN18.2 (hCLDN18.2), expressed …; assay: FACS, MFC cells over-expressing hCLDN18.2; MFC cells; first panel, run beside the hu22E12 H1 and H2 variants
[11] = biological target: T1, human CLDN18.2 (hCLDN18.2), expressed …; assay: FACS, MFC cells over-expressing hCLDN18.2; MFC cells; second panel, run beside the hu22E12 H3 and H4 variants

ADCC EC50 (nM), NK-CD16a effector cells [1]: 7.1e-05 nM
B1: hu35B4.H1L2-ADE (antibody, human IgG1)
heavy: EVQLLESGGGLVQPGGSLRLSCAASGFTLSSYALSWVRQAPGKGLEWVSYISNLGGSTFYPDTVKGRFTISRDNSKNTLYLQMNSLRAEDTAVYYCAKHLYNYDAFASWGQGTLVTVSSASTKGPSVFPLAPSSKSTSGGTAALGCLVKDYFPEPVTVSWNSGALTSGVHTFPAVLQSSGLYSLSSVVTVPSSSLGTQTYICNVNHKPSNTKVDKKVEPKSCDKTHTCPPCPAPELLAGPDVFLFPPKPKDTLMISRTPEVTCVVVDVSHEDPEVKFNWYVDGVEVHNAKTKPREEQYNSTYRVVSVLTVLHQDWLNGKEYKCKVSNKALPAPEEKTISKAKGQPREPQVYTLPPSREEMTKNQVSLTCLVKGFYPSDIAVEWESNGQPENNYKTTPPVLDSDGSFFLYSKLTVDKSRWQQGNVFSCSVMHEALHNHYTQKSLSLSPGK
VL: DIQLTQSPSFLSASVGDRVTITCRASSSVNYIHWYQQKPGKAPKALIYATSNLASGVPSRFSGSGSGTEYTLTISSLQPEDFATYYCQQWNSNPLTFGQGTKLEIK

ADCC EC50 (nM), NK-CD16a effector cells [1]: 9.43e-05 nM
B2: hu35B4.H1L2-VLPLL (antibody, human IgG1)
heavy: B1 heavy with L237V, A238G, D241S, F245L, R294P, Y302L, E334I, P398L
VL: B1 VL

ADCC EC50 (nM), NK-CD16a effector cells [1]: 2.75e-05 nM
B3: hu35B4.H1L2-DE (antibody, human IgG1)
heavy: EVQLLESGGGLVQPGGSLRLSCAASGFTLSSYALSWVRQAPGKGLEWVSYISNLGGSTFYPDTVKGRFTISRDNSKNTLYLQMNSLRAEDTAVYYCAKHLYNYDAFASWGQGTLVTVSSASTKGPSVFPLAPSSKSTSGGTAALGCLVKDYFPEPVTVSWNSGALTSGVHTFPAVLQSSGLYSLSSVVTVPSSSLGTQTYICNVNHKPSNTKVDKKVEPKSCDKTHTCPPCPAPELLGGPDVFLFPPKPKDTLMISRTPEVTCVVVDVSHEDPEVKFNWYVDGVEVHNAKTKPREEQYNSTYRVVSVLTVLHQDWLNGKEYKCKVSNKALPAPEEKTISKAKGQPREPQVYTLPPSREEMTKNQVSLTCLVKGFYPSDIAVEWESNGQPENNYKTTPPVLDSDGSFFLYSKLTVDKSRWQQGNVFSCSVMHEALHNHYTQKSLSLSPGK
VL: B1 VL

ADCC EC50 (nM), NK-CD16a effector cells [1]: 1.32e-05 nM
B4: hu35B4.H1L2-DLE (antibody, human IgG1)
heavy: B1 heavy with A238G, A332L
VL: B1 VL

ADCC EC50 (nM), NK-CD16a effector cells [1]: 0.02 nM | EC50 [2]: 0.253 nM
B5: hu35B4.H1L2 (antibody, V domains shown)
VH: EVQLLESGGGLVQPGGSLRLSCAASGFTLSSYALSWVRQAPGKGLEWVSYISNLGGSTFYPDTVKGRFTISRDNSKNTLYLQMNSLRAEDTAVYYCAKHLYNYDAFASWGQGTLVTVSS
VL: B1 VL
notes: humanized 35B4

PBMC VS NUGC4 ADCC (EC50 nM) [3]: 1.06 nM | ADCC EC50 (nM), NK-CD16a effector cells [4]: 0.126 nM | EC50 [5]: 1.05 nM and 0.943 nM
B6: ch22E12 (antibody, V domains shown)
VH: QVQLQQPGTELVKTGTSVKLSCKASGYTFTNWVHWVIQRPGQGLEWIGEINPTNGRSNYNEKFKKKATLTLDRSSTTAYMQLSSLTSEDSAVYFCAGIYYGNSFAHWGQGTLVTVSA
VL: DIVMTQSPSSLTVTAGEKVTLSCKSSQSLLNSGNQKNYLTWYQQKPGQPPKLLIYWSSTRESGVPDRFTGSGSGTDFTLTISSVQAEDLAVYHCQNNYYYPLTFGAGTKLELK

EC50 [6]: 3.5 nM | EC50 [7]: 0.81 nM
B7: 60F11 (antibody, V domains shown)
VH: QVQLQQPGAELVKPGASVKLSCKASGYTFTSYWMHWVKQRPGQGLEWIGMIHPNSGSTNYNEKFKSKATLTVDKSSSTAYMQLSSLTSEDSAVYYCARMGLGNAMDYWGQGTSVTVSS
VL: B6 VL with K36R, S57A, H93Y, N97A, Y99S
notes: mouse hybridoma antibody, purified; also called clone 60F11

EC50 [8]: 1.6 nM | EC50 [9]: 3.3 nM
B8: 97A9 (antibody, V domains shown)
VH: QVQLQQSGPELVKPGASMKLSCKASGYSFTRNDINWVKQRPGQGLEWIGLSYPRDGTTQYNGKFKGKATLTVDTSSSTAYMELRSLTSEDSAVYFCARGYYGNSFAYWGQGTLVTVSA
VL: B6 VL with L21M, S57A, D76Y, H93F, N97D, Y100F, L102Y, A106G, L112I
notes: mouse hybridoma antibody, purified; also called clone 97A9

EC50 [8]: 0.86 nM | EC50 [9]: 2.1 nM
B9: 22E12 (antibody, V domains shown)
VH: B6 VH
VL: B6 VL
notes: mouse hybridoma antibody, purified; also called clone 22E12

ADCC EC50 (nM), NK-CD16a effector cells [1]: 0.0803 nM | PBMC VS NUGC4 ADCC (EC50 nM) [3]: 4.05 nM | EC50 [2]: 0.419 nM and 0.442 nM
B10: ch35B4 (antibody, V domains shown)
VH: EAKLVESGGDFMQPGGSLKLSCAASGFTLSSYALSWVRQTPEKRLEWVAYISNLGGSTFYPDTVKGRFTISRDNARNTLFLQMSSLQSEDTAIYYCATHLYNYDAFASWGQGTLVTVSA
VL: QIVLSQSPAILSASPGEKVTMTCRASSSVNYIHWYQQKPGSSPKAWIYATSNLASGVPTRFSGSGSGTSYSLTIDRVEAEDAATYYCQQWNSNPLTFGAGTKLELK

EC50 [8]: 0.56 nM | EC50 [9]: 1.1 nM
B11: 33G12 (antibody, V domains shown)
VH: EVKLVESGGGLVQPGGSLKLSCAASGFTFSRYAMSWVRQTPEKRLEWVAYISIGGTTYYPDTIKGRFTISRDNAKNTLYLQMSSLKSEDTAMYYCTRHYYGHDVMDYWGQGTSVTVSS
VL: B10 VL with A9T, S26T, N30S, I32M, Y35F, A45P, T59A, D75S, N91S, S92R
notes: mouse hybridoma antibody, purified; also called clone 33G12

EC50 [8]: 0.85 nM | EC50 [9]: 3.8 nM
B12: 35B4 (antibody, V domains shown)
VH: B10 VH
VL: B10 VL
notes: mouse hybridoma antibody, purified; also called clone 35B4

EC50 [8]: 1.1 nM | EC50 [9]: 19 nM
B13: 99H8 (antibody, V domains shown)
VH: QVQLQQSGPELVKPGASVKLSCKASGYSFTNFDINWVKQRPGQGLQWIGRLYPRDGTTTYNEKFKGKASLTVDTSSTTSYMDLHSLTSEDSAVYFCVRGNYGNSFAYWGQGTLVTVSA
VL: DIVMTQSPSSLTVTAREKVIMNCKSSQSLFNSGNQKNYLTWYQQKPGQSPKLLIYWASTRQSGVPDRFTGSGSGTDFTLTISTVQAEDLAVYFCQNGFSFPYTFGGGTKLEMN
notes: mouse hybridoma antibody, purified; also called clone 99H8

EC50 [10]: 23.5 nM | PBMC VS NUGC4 ADCC (EC50 nM) [3]: 25.1 nM | ADCC EC50 (nM), NK-CD16a effector cells [4]: 0.228 nM | EC50 [11]: 42.7 nM | EC50 [7]: 0.71 nM
B14: IMAB362 (Zolbetuximab) (antibody, human IgG1, kappa, V domains shown)
VH: QVQLQQPGAELVRPGASVKLSCKASGYTFTSYWINWVKQRPGQGLEWIGNIYPSDSYTNYNQKFKDKATLTVDKSSSTAYMQLSSPTSEDSAVYYCTRSWRGNSFDYWGQGTTLTVSS
VL: DIVMTQSPSSLTVTAGEKVTMSCKSSQSLLNSGNQKNYLTWYQQKPGQPPKLLIYWASTRESGVPDRFTGSGSGTDFTLTISSVQAEDLAVYYCQNDYSYPFTFGSGTKLEIKR
